# According to the DeepSol protein solubility set:
# Assay: soluble on expression in E. coli; label from the status in PepcDB or PDB records
row,Sequence,soluble on expression in E. coli
1,MIPSRSARIIAKLQRLHSTTSAASVSSIDVKEVEKFGDLSAEWADELGPFHALHSLNRIRVPWIVDNVRKSDQKAPPRLVDVGSGGGLLSIPLARSGFDVTGIDATKQAVEAANQSLTAKPLQIAGISKRLRFEHTSVEDFCQKPHNKSAYDAVVASEIVEHVADLPGFIGCLAELARPGAPLFITTINRTWLSKLAAIWLAENVLKIVPPGVHDWEKFITPAELTSHLEKAGCRVTAVHGLMFHPVGNHWTWIESTQCNYGILAVKN,not soluble
2,GMINQERLVNEFMELVQVDSETKFEAEICKVLTKKFTDLGVEVFEDDTMAVTGHGAGNLICTLPATKDGVDTIYFTSHMDTVVPGNGIKPSIKDGYIVSDGTTILGADDKAGLASMFEAIRVLKEKNIPHGTIEFIITVGEESGLVGAKALDRERITAKYGYALDSDGKVGEIVVAAPTQAKVNAIIRGKTAHAGVAPEKGVSAITIAAKAIAKMPLGRIDSETTANIGRFEGGTQTNIVCDHVQIFAEARSLINEKMEAQVAKMKEAFETTAKEMGGHADVEVNVMYPGFKFADGDHVVEVAKRAAEKIGRTPSLHQSGGGSDANVIAGHGIPTVNLAVGYEEIHTTNEKIPVEELAKTAELVVAIIEEVAK,soluble
3,SMCPGCGCGRIIHLGLGTEQVEAYVREHFPHARVDRMDRDTTARRGGHARILRKVAERQTDILIGTQMVAKGHDFPGITLVGILSVESTLNIPDYRSAERTFQLVTQLIGRAGRGDDPGRVLIQSLNP,not soluble
4,MGSDKIHHHHHHMIIDRLFDSVEKKGHVCLGLDTDITYVPEEFCKKFNSIEDAIFNFNKKIIDATLDVVSCYKVQIAYYEAYGLKGLLAYKRTLEYLREKKAIAIADIKRGDIAKTAEMYAKAHFEGDFEADFVTLNPYMGLDGIEPYMPYIEKMEKGLFILLRTSNKGAYDIQYIKTQGGKNVYDEVGEKIYDLGQKATGRSKYSSIGAVVGCTHVEEGVEIRNKFKNMFFLIPGYGAQGGTAKEVSLYLREGNGGVVNSSRGILLAYKKEENGEKIFDECARLAAINMRDEIRKTL,not soluble
5,MGSDKIHHHHHHMAFIQPDLQFNPDTLDNLVIGIAADMGEHDSGAHHHSKAQLLYASAGCMRFYLADTQVVLPPTRAAWLPAGVVHHVTMRNVAAYRSLYFEPETVASLPSRVTIFHVNPLLKALIDTMSFWPWDKPRQSQHNAFSLLCEELENATAENLVLPLPQDKRLKTWLKQLQQKKQPANLKKMAIEIGASERTISRIFNAQTGMAYQAWRQQWRLLSAIEQLAAGASVAQVGFNLQFSSDSAFISFFKQYTGTTPAQYFKSPSV,not soluble
6,MIILYDFLQESSVMPRSKNDSKLKKKSALQSKFKEQQLNHGSKEHKSKFKFSQRKAKKKGPGMTHLPGNIYTLFTPVNGPKSKDEWIDTSKIMLDLHIDNMSSSDYIPSAIDRTDLVMVQSVHLLRKTGGRGLFAREDIPKGTCIGIYTGEVYSEQEFEQYLKEHVGSDKSYAMYVGGRVIDAARKGNLTRYINFSDSQDNAEFVETTLNRKKVAKVITTKNIKAGQQLLINYNTYEEQASRYYYFLNPGDGWLSAQEFYQTYQSQYRLEQMPYNLEGFDLKAGDRVLMTQIGRIILANYSLAKEQELNASDIDLPFLKVGSDEKILDFDEADTFTPLMAACYLGQVENVKWLIEHGANIDQQQSHSGHCPLSLTLKGYSLAKDTQKYIDIIQLLIKNQVNLLVHDRSDKTFLHNAALVLNNLDFQSVVKFLIGQNPIDINEYFTYIDENDFDIVMHCYNNKLFDKALVLLAFYPDYFKRNYMSDNEGHNQFNINAFRKAIKDFNSNERSILLMQLRESGLHLPEDLLEQLGIMDSSITLESKFF,not soluble
7,MGSHHHHHHDITSLYKKAGSAAAVLEENLYFQGSFTMRLKELGEFGLIDLIKKTLESKVIGDDTAPVEYCSKKLLLTTDVLNEGVHFLRSYIPEAVGWKAISVNVSDVIANGGLPKWALISLNLPEDLEVSYVERFYIGVKRACEFYKCEVVGGNISKSEKIGISVFLVGETERFVGRDGARLGDSVFVSGTLGDSRAGLELLLMEKEEYEPFELALIQRHLRPTARIDYVKHIQKYANASMDISDGLVADANHLAQRSGVKIEILSEKLPLSNELKMYCEKYGKNPIEYALFGGEDYQLLFTHPKERWNPFLDMTEIGRVEEGEGVFVDGKKVEPKGWKHF,soluble
8,MAESMQSKPSFEYPKRAAIGSYWSNRNRDEKHFKNLGPASLSSASAGKVMQWMLSHTCNGVPKPKGGYDAFGKIWYAPCNMAESVAQWRASMSNDEAQPAKNRVYWIGHSSQLLCLSNGINILFDPIFSQRASPLSFAGPSRRFPPAATAAQLPPIHIVTVSHNHYDHMDKQSIKAVAARFPDAHFVVPLKLDRFLREWGVPGASITTLDWYEACEVKGVRVGCTPAQHWGKHSAFDDNEVLWCGWCVGWQPGQQQQPASTCEKPTLISFSGIEPSSEALVEAQRTWNRYKKYFFAGDTAYNPDVSTSIYAHFGPMDMAALPIGAYSPRWFMARAHIDPEHAVQIFKDQHIQQAVAVHWGTFELADEPLDEPPQVLRKTLKDASIDENRFQIIPMGKFIEF,soluble
9,MGSDKIHHHHHHMEVKVGLAPMAGYTDSAFRTLAFEWGADFAFSEMVSAKGFLMNSQKTEELLPQPHERNVAVQIFGSEPNELSEAARILSEKYKWIDLNAGCPVRKVVKKGAGGALLKDLRHFRYIVRELRKSVSGKFSVKTRLGWEKNEVEEIYRILVEEGVDEVFIHTRTVVQSFTGRAEWKALSVLEKRIPTFVSGDIFTPEDAKRALEESGCDGLLVARGAIGRPWIFKQIKDFLRSGKYSEPSREEILRTFERHLELLIKTKGERKAVVEMRKFLAGYTKDLKGARRFREKVMKIEEVQILKEMFYNFIKEV,not soluble
10,MGHHHHHHSHMAQLMEVLSVTPTQSPENNDLISYNSVWVACQQMPQIPRDNKAAALLMLTKNVDFVKDAHEEMEQAVEECDPYSGLLNDTEENNSDNHNHEDDVLGFPSNQDLYWSEDDQELIIPCLALVRASKACLKKIRMLVAENGKKDQVAQLDDIVDISDEISPSVDDLALSIYPPMCHLTVRINSAKLVSVLKKALEITKASHVTPQPEDSWIPLLINAIDHCMNRIKELTQSELEL,not soluble
11,MTLAIEMKDVMKSFNEKTALRNVNIEVKQGEIFGFLGPSGSGKTTTVKILTSQLLHSVGTVRVLGKDITGPSSIDYKRIGILTDNSGLYERLSIYDNLLLFCDLYDCKKERIDEVLAQVNLLEDKKTLVKKLSKGMKQRVTLARAILHKPDILFLDEPTSALDPVNVQNIHKILKDLNREGTTIFLTTHNMDEAETLCNRIAFLCSGEIVALDTPENLRLQYAKDQIQVVLKDKKKETVQKDELGAKRISEWMKKGELLSIHSYEPTLGDIFIEVTGRGL,not soluble
12,MARAIAIDAPLSAGIRRTKKSPIKRASVGGVKKRFSTGTAGPSRRPTAQPRRQSGGIRTVDRSIPANENREVRINLSNLAHTVHSGDLRQLFAEFKIRNVSVNFNEHGKPVGTGDVTLPKRHADRLIQKFAGVSLDGKEIKFAIIDSANIANRVKFPEAPRRAPSNGRPAQRAPKRQNVKSGKPTGGAGAQKKLKAKKPKREAQPKKTLEELDAELDVYMSKA,not soluble
13,MNATIQTIPELLIQTRGNQTEVARMLSCARGTVLKYNRDSKGERHVIVNGVLMVKQGKRGRP,not soluble
14,TCCHGHGHGHDHGHRHAPRPAVAAIGTLAGNAELRWSDLRIEAMDCPTEERLIRDALGRQPAVESLEFNLMQRLLRVQHRFDSVEPLQKLIAGLGMQAVPLDAGENTDGPSQAPA,not soluble
15,MADLFAGKPLINQEGKELDGGDALRGKKVVALYFSAMWCGSCRQFTPKLKRFYEALKAAGKEIEVVLVSRDREAEDLLEYLGHGGDWVAIPFGDERIQEYLKKYEVPTIPAFKLINNAGELLHDARADVTERGKDDAVALFDEWVEKFPAN,not soluble
16,LKRLFFTVSLAVVLSACQALPLNQSQAIVHDEYVSSGDLLPIEAITTIDGEELDLQQLGKRKLVILFATWCHDSNRLLKALNSSPLLEMEGIEIVAIAREEDLETVTAWRDKRGIKVALAVDNDRSIYRRFASGGIPRLITIGENNKIIKMNLAEGEQQLAKIV,not soluble
17,MSLGKEKKVYIFDSILRDGSQAQGVSFSVADKIKIVKKLDELGIDYIEAGNPSSNPKDREFFEEIRSLKLKHSKLCAFGSTRRAGAKAEEDEGIKKLVDSGVNVFSIFGKAWDFHVTDIIKTSIEENLNMIRDSIKYLVSLNKEVVFDAEHFFDGFKSNKEYAIEVLNTARLAGAKWIVLCDTNGGTMPNEVSDIVKYLVRDLNFDNLGVHFHDDSGMAVANSVVAVHYGVNHVQGTFTGVGERCGNANLSNIIANLSLKMGYNTIKNDKLEYLTVAFRYICEACNMTPNERVAYVGNCAFSHKGGMHIDAVRKNPKSFEHIDPSRVGNSRRILVSEVSGRSTILPALKRINPKIDKDSPETKAVVKRIKDLEYLGYQFEGAEGSFELLMRKELNVFRPSFELVEYKVIAERPYLSDLSATAIVKIMVNGKLETTAADGKGPVNALDKALRKALGVFYKELANVYLTDYKVRVISGTKATSAKIRVLIESTDGVSTWTTVGVSYDIIEASWLALVDSVEYKLIQCNKEENNNEKTDDYDTKNTEGHHHHHH,soluble
18,MSLGSAIETLERLLKKRLRVPQEQLDTNPWLLNCANGTVDLRTGTLKAHRPEDYITRVVPLNFDPKATAPEFITTLARITCEEGQAGKPLCAFLQRWFGYCATGEVREQKFAVLYGDGNNGKSTLLDLITGILGRYSGVAAPGLLTGKNGPQHPNAIADLAGRRMVTTHESGEGEVLREDFVKQATGGDTLKARYLYGEFFEFKPTHKLQLLTNHKPAIKGQDSGIWRRIMLIPFKAKFDAAEGEEIGNGKYPRDMRIAEKLAAEREGVLAWIVAGAVEWYKNGLRPPDIVLAASEDYKEEQDRVGQFIDEECELGVEKEEKLSTPMGGGLYPAYTQWCKASGVCALSKVRFLGGLERRVPGFKKKVTKETVGAGKRREFVVIQGVALVDADEGHHHHHH,not soluble
19,GSKVVKFSYMWTINNFSFCREEMGEVIKSSTFSSGANDKLKWCLRVNPKGLDEESKDYLSLYLLLVSCPKSEVRAKFKFSILNAKGEETKAMESQRAYRFVQGKDWGFKKFIRRGFLLDEANGLLPDDKLTLFCEVSVVQDSVNISGQNTMNMVKVPECRLADELGGLWENSRFTDCCLCVAGQEFQAHKAILAARSPVFSAMFEHEMEESKKNRVEINDVEPEVFKEMMCFIYTGKAPNLDKMADDLLAAADKYALERLKVMCEDALCSNLSVENAAEILILADLHSADQLKTQAVDFINYHATDVLETSG,soluble
20,MGSDKIHHHHHHMAGRRAIAQNLLISNNDRQERTTRMNDKRNCFLPHDKLQHLIDSLQNAGYSCVGPQVRDGAIVYDVLTRAEQLPWGMRDHQEPGGYRLEQIPERKAFAFANGPQGIKPLLFKPQETVWRVERDEQGKLCFKPHQPDETPVAIIGSRACDLAAMSIQDKVFIENNKPDPRYKRRREQLFVVAVNCTYSSANCFCVSAGTGPAVNNSFDILMTEIEDGFVVEAGSDKGKKIMNQLDLHDAKSAQCTDAQNNVKQAAALQTKRIPLDNKRDLRDLLFSNLNHTRWDDVAERCLSCGNCTLVCPTCFCHSEVEKPGLDGCTSEHHREWDSCFTTGHTYLNGKIIRDDTKKQYRQWLTHKVGSWFDQFDTSGCVGCGRCVTWCPVGIDITEELAAISGESNARKIENE,not soluble
